Test results from US20180344870A1 (AGENUS, published 2018).
Numbering of substitutions follows the chain as printed.

Assays:
[1] = target: T1, “4-aa human to mouse” CD137 protein (human with a murine segment, UniProt Q07011 24-186); test: SPR, antibody captured by anti-human Fab, CD137 protein as analyte
T1 construct: also called “human to mouse” CD137 chimeric protein; not shown: Gly-Ser linker
Protocol: (§1) The chimeric CD137 proteins described above were tested in a surface plasmon resonance (SPR) assay. Briefly, a CM5 sensor chip was first coated with an anti-human Fab antibody using the amine coupling kit. […] Sensorgrams were recorded during both the association and dissociation phases.

[2] = target: T2, human-mouse fusion construct 5015 of CD137, on Jurkat cells (human with a murine segment, UniProt Q07011 24-255); test: flow cytometry on transfected Jurkat cells, anti-human IgG-PE detection
T2 construct: also called mutant 5015; murine switch mutant 5015
T2 chain: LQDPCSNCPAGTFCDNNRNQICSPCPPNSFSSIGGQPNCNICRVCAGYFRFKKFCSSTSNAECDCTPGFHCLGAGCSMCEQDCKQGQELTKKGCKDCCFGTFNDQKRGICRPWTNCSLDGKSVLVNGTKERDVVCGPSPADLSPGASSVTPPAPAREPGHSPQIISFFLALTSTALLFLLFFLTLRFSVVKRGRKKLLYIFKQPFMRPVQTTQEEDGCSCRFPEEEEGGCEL
Protocol: (§2) These engineered mutant cell lines were used to test whether anti-CD137 antibody can bind to particular switch mutants. Absence of binding would thereby indicate possible epitope locations. The cell binding assays were performed generally as described in Section 1.1. […] The cells were then washed and suspended in 80 μl of 2% paraformaldehyde (Electron Microscopy Sciences) prepared in PBS. Data were collected with BD FACS Canto and analyzed using BD FACSDiva software.

[3] = target: T3, human-mouse fusion construct 5016 of CD137, on Jurkat cells (human with a murine segment, UniProt Q07011 24-255); test: as above
T3 chain: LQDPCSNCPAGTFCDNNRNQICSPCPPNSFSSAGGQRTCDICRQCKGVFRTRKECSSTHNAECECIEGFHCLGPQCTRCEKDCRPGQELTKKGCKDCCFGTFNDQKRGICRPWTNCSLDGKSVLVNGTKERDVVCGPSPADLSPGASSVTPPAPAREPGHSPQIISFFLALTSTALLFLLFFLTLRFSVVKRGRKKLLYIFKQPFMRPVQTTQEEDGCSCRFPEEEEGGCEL
Protocol: as §2

[4] = target: T4, human-mouse fusion construct 5018 of CD137, on Jurkat cells (human with a murine segment, UniProt Q07011 24-255); test: as above
T4 construct: also called mutant 5018; murine switch mutant 5018
T4 chain: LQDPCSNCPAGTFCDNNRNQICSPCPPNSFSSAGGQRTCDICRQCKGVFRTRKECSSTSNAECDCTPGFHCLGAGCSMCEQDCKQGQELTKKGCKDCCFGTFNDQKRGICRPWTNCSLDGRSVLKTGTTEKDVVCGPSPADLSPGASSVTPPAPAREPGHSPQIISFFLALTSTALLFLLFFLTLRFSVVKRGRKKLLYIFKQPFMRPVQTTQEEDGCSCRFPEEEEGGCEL
Protocol: as §2

[5] = target: T5, human-mouse fusion construct 5017 of CD137, on Jurkat cells (human with a murine segment, UniProt Q07011 24-255); test: flow cytometry on transfected Jurkat cells, serial dilutions of antibody
T5 construct: on Jurkat cells
T5 chain: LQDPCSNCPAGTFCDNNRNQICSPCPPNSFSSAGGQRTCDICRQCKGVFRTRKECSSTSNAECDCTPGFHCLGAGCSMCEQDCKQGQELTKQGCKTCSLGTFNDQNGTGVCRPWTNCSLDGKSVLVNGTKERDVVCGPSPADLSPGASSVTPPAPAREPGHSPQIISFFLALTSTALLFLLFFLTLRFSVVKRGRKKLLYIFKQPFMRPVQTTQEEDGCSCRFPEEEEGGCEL
Protocol: as §2

[6] = target: T6, human CD137 expressed on cells (human, UniProt Q07011 24-255); test: flow cytometry on engineered Jurkat cells, anti-human lambda-PE detection
T6 construct: also called 4-1BB; TNFRSF9

[7] = target: T7, “4-aa mouse to human” CD137 protein (murine with a human segment, UniProt P20334 24-187); test: SPR, BA001 captured by anti-human Fab, chimeric protein at 60 nM as analyte
T7 construct: also called “mouse to human” CD137 chimeric protein; not shown: Gly-Ser linker
Protocol: as §1

[8] = target: T8, mouse-human fusion construct 5015 (extracellular domain, Gly-Ser linker, 6×His tag) (murine with a human segment, UniProt P20334 24-187); test: ELISA (DELFIA europium read-out), antigen coated at 5 µg/ml
T8 construct: also called mCD137-human53-80; not shown: Gly-Ser linker
T8 chain (part 1 of 2): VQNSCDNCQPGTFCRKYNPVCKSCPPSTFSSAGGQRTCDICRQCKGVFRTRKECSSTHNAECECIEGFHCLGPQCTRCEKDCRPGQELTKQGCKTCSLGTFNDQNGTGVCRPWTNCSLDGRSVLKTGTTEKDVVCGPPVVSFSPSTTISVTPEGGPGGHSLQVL
T8 chain (part 2 of 2): HHHHHH
Protocol: (§3) Specifically, 50 μl of 5 μg/ml of each antigen diluted in 1×PBS pH 7.4 (Gibco™, Cat no. 10010056) was added to each well in a Thermo Scientific™ Black 96-Well Immuno Plate (Thermofisher Scientific, Cat no. 437111) and incubated at 4° C. overnight. The plate was washed three times with PBS using the Biotek 405TS microplate washer with Biostack3 microplate stacker. The plate was blocked by incubating with 300 ul/well of 3% Milk Powder in PBS (Marvel dried skimmed milk powder) for 1 hour at room temperature, and were washed three times with 1×PBS. The antibodies titrated in 3% M-PBS (Milk Powder in 1×PBS) were added to the plate and incubated for 1 hour at room temperature. The plate was washed three times with 1×PBS with 0.1% Tween20 (Sigma Aldrich, Cat No. P1379) and three times with 1×PBS using the plate washer. 50 μl Biotin-SP (long spacer) AffiniPure Goat Anti-Human IgG, Fcγ Fragment Specific (Jackson Immuno Research, Code:109-065-098, Lot no. 123909) diluted at 1:2000 in 3% M-PBS was added to each well and incubated for 1 hour at room temperature. The plate was washed three times with 1×PBS with 0.1% Tween20 and three times with 1×PBS using the plate washer. For detection, 50 μl of DELFIA® Europium-labeled streptavidin (PerkinElmer, Part no. 1244-360, Lot no. 2195997) diluted in the DELFIA® Assay buffer (PerkinElmer, Part no. 4002-0010, Lot no. 646702) at 1:500 was added to each well and incubated for 1 hour at room temperature. The plate was washed three times with 1×PBS with 0.1% Tween20 and three times with PBS using the plate washer.

[9] = target: T9, extracellular domain of human CD137 with Gly-Ser linker and 6×His tag (human, UniProt Q07011 24-186); test: ELISA (DELFIA europium read-out), antigen coated at 5 µg/ml, IgG1 titrated
T9 construct: also called human CD137 (ELISA antigen); not shown: Gly-Ser linker
Protocol: as §3

[10] = target: T10, mouse-human fusion construct 5017 (extracellular domain, Gly-Ser linker, 6×His tag) (murine with a human segment, UniProt P20334 24-187); test: as above
T10 construct: not shown: Gly-Ser linker
T10 chain (part 1 of 2): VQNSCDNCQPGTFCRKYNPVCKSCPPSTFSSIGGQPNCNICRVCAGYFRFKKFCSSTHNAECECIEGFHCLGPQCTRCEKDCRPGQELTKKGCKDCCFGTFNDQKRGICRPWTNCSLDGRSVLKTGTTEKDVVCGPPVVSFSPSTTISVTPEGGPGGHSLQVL
T10 chain (part 2 of 2): HHHHHH
Protocol: as §3

B1: BA001 (IgG1) (antibody, V domains shown)
VH: not shown
VL: SYVLTQPPSVSVAPGETARITCGGDDIGDKRVHWYQKKPDQAPVLVVYEDRYRPSGIPERISGSNSGNTATLTLSRVEAGDEADYYCQVWDSSSDHPGVFGGGTQLIILG
modifications: N-terminal X = glutamine (Q) or pyroglutamate (pE)
notes: Human IgG1 with lambda light chain; also called anti-CD137 antibody BA001
B1: no binding (tested: 60 nM) [1]; binds [2]; binds [3]. B1: binds [4]; no binding [5]; binds [6]. B1: binds [7].

B2: BA049 (IgG1 format) (antibody, V domains shown)
VH: not shown
VL: B1 VL
modifications: N-terminal X = glutamine (Q) or pyroglutamate (pE)
B2: no binding [8]; binds [9]; binds [10].

B3: BA052 (IgG1 format) (antibody, V domains shown)
VH: QVQLVQSGAEVKKPGASVKVSCKASGYNFSGYYMHWVRQAPGQGLEWMGWINPNSGGTNYAQKFQGRVTITRDTSISTAYMELSRLRSDDTAVYYCAREPGYYGSGLDYWGQGTLVTVSS
VL: B1 VL with D91Y, S94P
modifications: N-terminal X = glutamine (Q) or pyroglutamate (pE)
B3: no binding [8]; binds [9]; binds [10].

B4: BA051 (IgG1 format) (antibody, V domains shown)
VH: not shown
VL: B1 VL with H96Y
modifications: N-terminal X = glutamine (Q) or pyroglutamate (pE)
B4: no binding [8]; binds [9]; binds [10].

B5: BA050 (IgG1 format) (antibody, V domains shown)
VH: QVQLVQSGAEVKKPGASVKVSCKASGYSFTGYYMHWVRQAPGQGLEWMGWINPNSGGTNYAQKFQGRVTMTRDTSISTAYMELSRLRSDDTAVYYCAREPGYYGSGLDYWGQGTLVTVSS
VL: B1 VL with D91N
modifications: N-terminal X = glutamine (Q) or pyroglutamate (pE)
B5: no binding [8]; binds [9]; binds [10].
